The series is described as follows: soluble on expression in E. coli; label from the status in PepcDB or PDB records.
For “SMPEQSNDYRVVVFGAGGVGKSSLVLRFVKGTFRDTYIPTIEDTYRQVISCDKSVCTLQITDTTGSHQFPAMQRLSISKGHAFILVFSVTSKQSLEELGPIYKLIVQIKGSVEDIPVMLVGNKCDETQREVDTREAQAVAQEWKCAFMETSAKMNYNVKELFQELLTLETRRNMSLNIDGKRSGKQKRTDRVKGKCTLM”, the “soluble on expression in E. coli” value was “soluble”.

Turning to “SMQELFNNLMELCKDSQRKFFYSDDVSASGRTYRIFSYNYASYSDWLLPDALECRGIMFEMDGEKPVRIASRPMEKFFNLNENPFTMNIDLNDVDYILTKEDGSLVSTYLDGDEILFKSKGSIKSEQALMANGILMNINHHRLRDRLKELAEDGFTANFEFVAPTNRIVLAYQEMKIILLNVRENETGEYISYDDIYKDATLRPYLVERYEIDSPKWIEEAKNAENIEGYVAVMKDGSHFKIKSDWYVSLHSTKSSLDNPEKLFKTIIDGASDDLKAMYADDEYSYRKIEAFETTYLKYLDRALFLVLDCHNKHCGKDRKTYAMEAQGVAKGAGMDHLFGIIMSLYQGYDSQEKVMCEIEQNFLKNYKKFIPEGY”, the “soluble on expression in E. coli” value is “soluble”.

As for “SMTLTLNRQLLTSRQILVAFSGGLDSTVLLHQLVQWRTENPGVALRAIHVHHGLSANADAWVTHCENVCQQWQVPLVVERVQLAQEGLGIEAQARQARYQAFARTLLPGEVLVTAQHLDDQCETFLLALKRGSGPAGLSAMAEVSEFAGTRLIRPLLARTRGELVQWARQYDLRWIEDESNQDDSYDRNFLRLRVVPLLQQRWPHFAEATARSAALCAEQESLLDELLADDLAHCQSPQGTLQIVPMLAMSDARRAAIIRRWLAGQNAPMPSRDALVRIWQEVALAREDASPCLRLGAFEIRRYQSQLWWIKSVTGQSENIVPWQTWLQPLELPAGLGSVQLNAGGDIRPPRADEAVSVRFKAPGLLHIVGRNGGRKLKKIWQELGVPPWLRDTTPLLFYGETLIAAAGVFVTQEGVAEGENGVSFVWQKTLS”, the “soluble on expression in E. coli” value is recorded as “soluble”.

As for “SNADRRYKWQTVVSEQLVGAGFNEILNNSLTAGSYYEGLKSHPREMAVELMNPLSQELNCMRQTLLFGGLETLSHNLRRKHLSLYLFEWGKCYRFHAAKRTDETPLAAYAEDDRLGIWICGQRVHNSWAHPEEPTSVFELKAVVEQVLCRVGIETGAYTLKTADNDLYASAMEVKTRSGKLLGTFGTVSTELIKRFEIEQPVYFAELLWDALM”, the “soluble on expression in E. coli” value was “soluble”.

As for “SNAMIYPDETMLYAPVEWHDCSEGYTDIRYEKSTDGIAKITINRPQVRNAFRPLTVKEMIQALADARYDDNVGVIILTGEGDKAFCAGGDQKVRGDYGGYQDDSGVHHLNVLDFQRQIRTCPKPVVAMVAGYSIGGGHVLHMMCDLTIAAENAIFGQTGPKVGSFDGGWGASYMARIVGQKKAREIWFLCRQYDAQQALDMGLVNTVVPLADLEKETVRWCREMLQNSPMALRCLKAALNADCDGQAGLQELAGNATMLFYMTEEGQEGRNAFNQKRQPDFSKFKRNP”, the “soluble on expression in E. coli” value is “soluble”.

For the sequence “SNAMKVINVDVAIIGTGTAGMGAYRAAKKHTDKVVLIEGGAYGTTCARVGCMPSKLLIAAADASYHASQTDLFGIQVDRISVNGKAVMKRIQTERDRFVGFVVESVESFDEQDKIRGFAKFLDEHTLQVDDHSQVIAKRIVIATGSRPNYPEFLAAAGSRLLTNDNLFELNDLPKSVAVFGPGVIGLELGQALSRLGVIVKVFGRSGSVANLQDEEMKRYAEKTFNEEFYFDAKARVISTIEKEDAVEVIYFDKSGQKTTESFQYVLAATGRKANVDKLGLENTSIELDKKNSPLFDELTLQTSVDHIFVAGDANNTLTLLHEAADDGKVAGTNAGAYPVIAQGQRRAPLSVVFTEPQVASVGLSLRQIEDLYADQDAANYVVGQVSFEGQGRSRVMGKNKGLLNVYADRTSGEFLGAEMFGPAAEHIGHLLAWARQQQMTVQAMLTMPFYHPVIEEGLRTALRDAQQKLAIEKHDMNEFIMTHDNAMKLVI”, the “soluble on expression in E. coli” value is “soluble”.

Consider “SNAMLRYGDTEICIDPSESVLHLLGKKYTMLIISVLGNGSTRQNFNDIRSSIPGISSTILSRRIKDLIDSGLVERRSGQITTYALTEKGMNVRNSLMPLLQYISVLDRNGD”, for which the “soluble on expression in E. coli” value was “soluble”.

In the case of “SNAMNIQALLSEKVSQALIAAGAPADCEPQVRQSAKVQFGDYQANGVMAVAKKLGMAPRQLAEQVLSHLDLNGIANKVEIAGPGFINIFLDPAFLADNVNRALQSERLG”, the “soluble on expression in E. coli” value was “soluble”.

Regarding “SNAMSFIAIIPARYASTRLPGKPLADIAGKPMVVHVMERALASGADRVIVATDHPDVVKAVEAAGGEVCLTRADHQSGTERLAEVIEHYGFADDDIIVNVQGDEPLVPPVIIRQVADNLAACSAGMATLAVPIASSEEAFNPNAVKVVMDAQGYALYFSRATIPWERERFAQSKETIGDCFLRHIGIYAYRAGFIRRYVNWAPSQLEQIELLEQLRVLWYGEKIHVAVAKAVPAVGVDTQSDLDRVRAIMLNQ”, the “soluble on expression in E. coli” value is “soluble”.

As for “SNAMSKKAELAELVKELAVVHGKVTLSSGKEADYYVDLRRATLHARASRLIGELLRELTADWDYVAVGGLTLGADPVATSVMHADGREIHAFVVRKEAKKHGMQRRIEGPDVVGKKVLVVEDTTTTGNSPLTAVKALREAGAEVVGVATVVDRATGAADVIAAEGLEYRYILGLEDLGLA”, the “soluble on expression in E. coli” value is recorded as “soluble”.

Consider “SNAMWKRMTAKAEGLYIADTKSFVTKQMDKLDFDYGGIPGDLHFGLTKKAGAREPMFSRGTEIFNRRQISIVSIEECNEIALKMGVPRILPEWLGANVAVSGMPDLTSLKEGSRIIFPSGAALLCEGENDPCIQPGEVIQSYYPDQPKLASAFVRHALGIRGIVCIVERPGAVYTGDEIEVHSYQRKVKRKAERV”, for which the “soluble on expression in E. coli” value is “soluble”.

For “SNAQESRLDRILESGVLRVATTGDYKPFSYRTEEGGYAGFDVDMAQRLAESLGAKLVVVPTSWPNLMRDFADDRFDIAMSGISINLERQRQAYFSIPYLRDGKTPITLCSEEARFQTLEQIDQPGVTAIVNPGGTNEKFARANLKKARILVHPDNVTIFQQIVDGKADLMMTDAIEARLQSRLHPELCAVHPQQPFDFAEKAYLLPRDEAFKRYVDQWLHIAEQSGLLRQRMEHWLEYR”, the “soluble on expression in E. coli” value was “soluble”.

As for “SNASYETSQHNLDAVEAVLSRLQKQTGEMAAYMVPVGYRALCVSQRESMQALRCSFVQGQSQPLLRGASSKVMLAYMPAARCEKILRYFGEDPTLDKWQSEFEKIRRHGYAVSTSEIDPGVSGISAPVMKGSKLIGAISVMAPAHRVESNKQRIILHVLQAARAL”, the “soluble on expression in E. coli” value was “soluble”.

Consider “SNEVKESLRSIEQKYKLFQQQQFTFIAALEHCRENAHDKIRPISSIEQVQSYMEHYCNNSTHRRILIMFMDICSELSKLCQHFEALHSGTPVTNSLLEKCKTLVSQSNDLSSLRAKYPHEVVNHLSCDEARNHYGGVVSLIPIVLDFMKEWIAHSEKLPRKVLQHGTT”, for which the “soluble on expression in E. coli” value is “soluble”.

As for “SNKLMELANLQPKRPKTIKQRHVRKKRKIKDMLNTPLCPSHSSLHPVLLPSDVFDQPQPVGNKRIEFHISTDMPAAFKKDLEKEQNCEEKNHDLPATEVDASNIGFGKIFPKPNLDITEEIKEDSDEMPSECISRRELEKGRISREEMETLSVFRSYEPGEPNCRIYVKNLAKHVQEKDLKYIFGRYVDFSSETQRIMFDIRLMKEGRMKGQAFIGLPNEKAAAKALKEANGYVLFGKPMVVQFARSARPKQDPKEGKRKC”, the “soluble on expression in E. coli” value is given as “soluble”.

“SNQECPDYLRELIRKTKTLTEKPFGIGVVLAFPHDLNIKTILEEKVAVLQLYWGDCSQELVDDAHFAGVKVIPQVGNVEEARKAVAVGVDAIIVQGREAGGHVIGKDGLFSLLPRVVDLVGERDIPVIAAGGIVDGRGYVAALSLGAQGVCLGTRFVATHESYAHPIYKRKLIEYEKTEYTDVFGRARWPGAPQRVLETPFFDDWRSLPAHENEVNQPIIGRSTIHGVEKEIRRFSGTVPNMTTTGDLESMAMYAGQSVGLIKEILPAGEVVKSLVEEAQALILQKFNNATTT”: the “soluble on expression in E. coli” value was “soluble”.

Take “SNTQAERSIIGMIDMFHKYTRRDDKIDKPSLLTMMKENFPNFLSACDKKGTNYLADVFEKKDKNEDKKIDFSEFLSLLGDIATDYHKQSHGAAPCSGGSQ”: the “soluble on expression in E. coli” value is given as “soluble”.

With “SPGQGTQSENSCTHFPGNLPNMLRDLRDAFSRVKTFFQMKDQLDNLLLKESLLEDFKGYLGCQALSEMIQFYLEEVMPQAENQDPDIKAHVNSLGENLKTLRLRLRRCHRFLPCENKSKAVEQVKNAFNKLQEKGIYKAMSEFDIFINYIEAYMTMKIRN”, the “soluble on expression in E. coli” value is “soluble”.

Regarding “SPTVEELYRNYGILADATEQVGQHKDAYQVILDGVKGGTKEKRLAAQFIPKFFKHFPELADSAINAQLDLCEDEDVSIRRQAIKELPQFATGENLPRVADILTQLLQTDDSAEFNLVNNALLSIFKMDAKGTLGGLFSQILQGEDIVRERAIKFLSTKLKTLPDEVLTKEVEELILTESKKVLEDVTGEEFVLFMKILSGLKSLQTVSGRQQLVELVAEQADLEQTFNPSDPDCVDRLLQCTRQAVPLFSKNVHSTRFVTYFCEQVLPNLGTLTTPVEGLDIQLEVLKLLAEMSSFCGDMEKLETNLRKLFDKLLEYMPLPPEEAENGENAGNEEPKLQFSYVECLLYSFHQLGRKLPDFLTAKLNAEKLKDFKIRLQYFARGLQVYIRQLRLALQGKTGEALKTEENKIKVVALKITNNINVLIKDLFHIPPSYKSTVTLSWKPVQKVEIGQKRASEDTTSGSPPKKSSAGPKRDARQIYNPPSGKYSSNLGNFNYERSLQGK”, the “soluble on expression in E. coli” value is “soluble”.

Take “SQELRGEIKLFCSVTASYSHLPELLSSFRLKHPYIEFKLLTGDPAQAIDKILHDEADIAISAMPEQLPSRIEFATISEIPLSVIAPLGISSFMDELQKEQPDWNEIPFIVPESGTARDRANTWFKQMKIKPNIYAQIAGHEAIV”: the “soluble on expression in E. coli” value is on record as “not soluble”.

In the case of “SQILDRKGRLIANIYDKEFRFYARFEEIPPRFIESLLAVEDTLFFEHGGINLDAIMRAMIKNAKSGRYTEGGSTLTQQFVKNMVLTREKTLTRKLKEAIISIRIEKVLSKEEILERYLNQTFFGHGYYGVKTASLGYFKKPLDKLTLKEITMLVALPRAPSFYDPTKNL”, the “soluble on expression in E. coli” value is “not soluble”.

Take “SQKQKALLQRVETDITSVVDNFTQIVNVSRVSDPPVKNSQETYMMEMRASRMATQVLLKDFLMSLWSVVNLLPHQWWQVQAADSLLKLVSELKQTAIFSGFASLNDHVEQRIEEFDQEAEKTNRLLARIADDASANLKELESHYYSSAQRLTLDI”: the “soluble on expression in E. coli” value is given as “not soluble”.

For “SRAMPASLSTAALRSDNVSPVDPLGVQREFDHYVSVLRDRLGLQVVMLPADEELPDCVFVEDTAVVCGSTALITRPGAPSRRSETVAMKGALTELGLNIVEMNDESATMDGGDVLFTGKEFFVGLSKRTNQRGAEILANTFKDYAVSTIPVEEGLHLKSFCSMAGPNLIAIGSSDAAQKALKVIQQMSDCKYEKLTVPDDRAANCVYMNLPGKGDVLLHCTPEVFPESAKVFERLKSHMLIPVSNQEKMKVDGALTCLSVLLRI”, the “soluble on expression in E. coli” value is given as “soluble”.

In the case of “SREGVLYDGDSLAYIIAKHRQQLGELQGGVAGTLMTNLAVEQAFERLGIPFARANVGDRYVSELLQQNDWYLGAENSGHIICRDKHTTGDGIISALQVLYALRDTGLTLADFMRDVPFF”, the “soluble on expression in E. coli” value is given as “not soluble”.

Turning to “SRMQRDLSDSTVLRNLGVAFSYSLIAYHSVAKGNDKLQINKSALQKDLSENWEVLAEAIQTVMRRYNEPNAYEQLKELTRGQMIDAENLKKFIKTLSIPEEAKAELMKLTPETYTGLATQLVKAFS”, the “soluble on expression in E. coli” value is recorded as “not soluble”.

With “SRNICYDAFVSYSERDAYWVENLMVQELENFNPPFKLCLHKRDFIHGKWIIDNIIDSIEKSHKTVFVLSENFVKSEWCKYELDFSHFRLFDENNDAAILILLEPIEKKAIPQRFCKLRKIMNTKTYLEWPMDEAQREGFWVNLRAAIKS”, the “soluble on expression in E. coli” value is on record as “soluble”.

The values above are taken from the DeepSol protein solubility set.
